Experimental data from patent publication US20260049140A1 (JANUX THERAPEUTICS, published 2026).
Ends that are not written are not given here.

T1: Cyno CD3 (Antigen was biotinylated for capture on the plate (per card); site of biotin and any vendor tag not stated in the passages seen.)
T1 construct: also called cynomolgus CD3
T1 chain: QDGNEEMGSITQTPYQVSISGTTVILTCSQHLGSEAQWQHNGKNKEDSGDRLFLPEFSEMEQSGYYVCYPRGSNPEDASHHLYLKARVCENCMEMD

T2: human TROP2-biotin (human, UniProt P09758 27-274, limits assumed, biotinylated (site not stated))
T2 construct: also called hTROP2-Biotin; Biotinylated TROP2
T2 sequence (looked up): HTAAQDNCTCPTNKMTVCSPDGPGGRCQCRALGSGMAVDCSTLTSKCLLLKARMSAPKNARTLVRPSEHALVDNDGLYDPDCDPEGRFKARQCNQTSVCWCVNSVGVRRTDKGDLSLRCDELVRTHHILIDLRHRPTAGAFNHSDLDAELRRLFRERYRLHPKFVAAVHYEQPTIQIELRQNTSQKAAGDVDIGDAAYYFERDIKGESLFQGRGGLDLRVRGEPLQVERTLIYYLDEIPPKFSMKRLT


What was measured:
TCE-19 = target: T3, TCE-19; assay: competition ELISA, peptide titrated vs TCE binding to captured CD3
T3 construct: anti-CD3 scFv W233A; anti-TROP2 Fab wt; also called 3091

TCE-1 = target: T4, TCE-1; assay: competition ELISA: peptide titrated and pre-incubated with a constant concentration of TCE-1; TCE-1 bound to plate-captured biotinylated CD3 is detected (blocked ligand: CD3)
T4 construct: anti-CD3 scFv wt fused to anti-TROP2 Fab HC wt

TCE-15 = target: T5, TCE-15; assay: competition ELISA, peptide titrated vs TCE binding to captured CD3
T5 construct: anti-CD3 scFv W112A; anti-TROP2 Fab wt; also called 3087

human CD3ε-biotin [1] = target: T6, human CD3ε-biotin (human, UniProt P07766 23-126, limits assumed, biotinylated (site not stated)); assay: BLI (Octet), human CD3ε-biotin 10 nM on sensor, 50 nM TCE
T6 construct: also called CD3E-bio; CD3E-biotin

Cyno CD3 = target: T1, Cyno CD3; assay: Cyno CD3 binding ELISA, TCE titrated
human TROP2-biotin = target: T2, human TROP2-biotin; assay: ELISA, biotinylated TROP2 captured on neutravidin plate, TCE titrated
human CD3ε-biotin [2] = target: T6, human CD3ε-biotin; assay: BLI (Octet), summary table

| Binder | Response (human CD3ε-biotin [1]) | Kd (human CD3ε-biotin [1]) | CD3 Octet response (human CD3ε-biotin [2]) | CD3 t1/2 (human CD3ε-biotin [2]) | Kd (human CD3ε-biotin [2]) | also measured |
| --- | --- | --- | --- | --- | --- | --- |
| VYCGPEFDESVGCM (cysteine pairing not given here; also: biotinylated when captured in ELISA, also called 1443) [Peptide-3] |  |  |  |  |  | IC50 (TCE-19): > 100000 nM |
| VYCGPEFDESVGCA (cysteine pairing not given here; also: biotinylated when captured in binding ELISA, also called 1566) [Peptide-9] |  |  |  |  |  | IC50 (TCE-19): > 100000 nM |
| AYCGPEFDESVGCM (cysteine pairing not given here; also: biotinylated when captured in binding ELISA, also called 1555) [Peptide-8] |  |  |  |  |  | IC50 (TCE-19): > 100000 nM; IC50 (read off the curve) (TCE-1): ~400 nM |
| GSQCLGPEWEVCPY (cysteine pairing not given here; also: biotinylated when captured in ELISA, also called 1419) [Peptide-2] |  |  |  |  |  | IC50 (TCE-19): > 100000 nM; IC50 (TCE-15): > 100000 nM; IC50 (read off the curve) (TCE-1): ~300 nM |
| ASQCLGPEWEVCPY (cysteine pairing not given here; also: biotinylated when captured in ELISA, also called 1594) [Peptide-10] |  |  |  |  |  | IC50 (TCE-19): > 100000 nM; IC50 (read off the curve) (TCE-1): ~200 nM |
| TCE-29 (anti-CD3 scFv wt; anti-TROP2 (F108A) HC) (bispecific antibody, scFv-Fab; the entry already carries the mutation) light: DIQLTQSPSSLSASVGDRVSITCKASQDVSIAVAWYQQKPGKAPKLLIYSASYRYTGVPDRFSGSGSGTDFTLTISSLQPEDFAVYYCQQHYITPLTFGAGTKVEIKRTVAAPSVFIFPPSDEQLKSGTASVVCLLNNFYPREAKVQWKVDNALQSGNSQESVTEQDSKDSTYSLSSTLTLSKADYEKHKVYACEVTHQGLSSPVTKSFNRGEC heavy: not shown |  |  |  |  |  | EC50 (Cyno CD3): 0.184 nM; EC50 (human TROP2-biotin): 1.15 nM |
| TCE-24 (anti-CD3 scFv W238A; anti-TROP2 HC wt) (bispecific antibody, scFv-Fab; the entry already carries the mutation; also called 3096) light: DIQLTQSPSSLSASVGDRVSITCKASQDVSIAVAWYQQKPGKAPKLLIYSASYRYTGVPDRFSGSGSGTDFTLTISSLQPEDFAVYYCQQHYITPLTFGAGTKVEIKRTVAAPSVFIFPPSDEQLKSGTASVVCLLNNFYPREAKVQWKVDNALQSGNSQESVTEQDSKDSTYSLSSTLTLSKADYEKHKVYACEVTHQGLSSPVTKSFNRGEC heavy: not shown | 0.0683 | 31 nM | 0.07 |  | 31 nM |  |
| TCE-30 (anti-CD3 scFv H101A; anti-TROP2 (F108A) HC) (bispecific antibody, scFv-Fab; the entry already carries the mutations) light: DIQLTQSPSSLSASVGDRVSITCKASQDVSIAVAWYQQKPGKAPKLLIYSASYRYTGVPDRFSGSGSGTDFTLTISSLQPEDFAVYYCQQHYITPLTFGAGTKVEIKRTVAAPSVFIFPPSDEQLKSGTASVVCLLNNFYPREAKVQWKVDNALQSGNSQESVTEQDSKDSTYSLSSTLTLSKADYEKHKVYACEVTHQGLSSPVTKSFNRGEC heavy: not shown |  |  |  |  |  | EC50 (human TROP2-biotin): 1.28 nM |
| TCE-21 (anti-CD3 scFv S235A; anti-TROP2 HC wt) (bispecific antibody, scFv-Fab; the entry already carries the mutation) light: DIQLTQSPSSLSASVGDRVSITCKASQDVSIAVAWYQQKPGKAPKLLIYSASYRYTGVPDRFSGSGSGTDFTLTISSLQPEDFAVYYCQQHYITPLTFGAGTKVEIKRTVAAPSVFIFPPSDEQLKSGTASVVCLLNNFYPREAKVQWKVDNALQSGNSQESVTEQDSKDSTYSLSSTLTLSKADYEKHKVYACEVTHQGLSSPVTKSFNRGEC heavy: not shown | 0.682 | 3.41 nM | 0.68 |  | 3.41 nM |  |
| TCE-22 (anti-CD3 scFv N236A; anti-TROP2 HC wt) (bispecific antibody, scFv-Fab; the entry already carries the mutation) light: DIQLTQSPSSLSASVGDRVSITCKASQDVSIAVAWYQQKPGKAPKLLIYSASYRYTGVPDRFSGSGSGTDFTLTISSLQPEDFAVYYCQQHYITPLTFGAGTKVEIKRTVAAPSVFIFPPSDEQLKSGTASVVCLLNNFYPREAKVQWKVDNALQSGNSQESVTEQDSKDSTYSLSSTLTLSKADYEKHKVYACEVTHQGLSSPVTKSFNRGEC heavy: not shown | 0.65 |  | 0.65 | 2.45 min |  |  |
| TCE-18 (anti-CD3 scFv L232A; anti-TROP2 HC wt) (bispecific antibody, scFv-Fab; the entry already carries the mutation) light: DIQLTQSPSSLSASVGDRVSITCKASQDVSIAVAWYQQKPGKAPKLLIYSASYRYTGVPDRFSGSGSGTDFTLTISSLQPEDFAVYYCQQHYITPLTFGAGTKVEIKRTVAAPSVFIFPPSDEQLKSGTASVVCLLNNFYPREAKVQWKVDNALQSGNSQESVTEQDSKDSTYSLSSTLTLSKADYEKHKVYACEVTHQGLSSPVTKSFNRGEC heavy: not shown | 0.663 | 8.39 nM | 0.66 | 2.64 min | 8.39 nM |  |
| TCE-35 (anti-CD3 scFv wt; anti-TROP2 (D109A) HC) (bispecific antibody, scFv-Fab; the entry already carries the mutation) light: DIQLTQSPSSLSASVGDRVSITCKASQDVSIAVAWYQQKPGKAPKLLIYSASYRYTGVPDRFSGSGSGTDFTLTISSLQPEDFAVYYCQQHYITPLTFGAGTKVEIKRTVAAPSVFIFPPSDEQLKSGTASVVCLLNNFYPREAKVQWKVDNALQSGNSQESVTEQDSKDSTYSLSSTLTLSKADYEKHKVYACEVTHQGLSSPVTKSFNRGEC heavy: not shown |  |  |  |  |  | EC50 (human TROP2-biotin): 1.07 nM |

More lines, main results first:

| Response (human CD3ε-biotin [1]) | Kd (human CD3ε-biotin [1]) | CD3 Octet response (human CD3ε-biotin [2]) | CD3 t1/2 (human CD3ε-biotin [2]) | Kd (human CD3ε-biotin [2]) | Binder | also measured |
| --- | --- | --- | --- | --- | --- | --- |
| -0.0009 |  |  |  |  | TCE-14 (anti-CD3 scFv Y111A; anti-TROP2 HC wt) (bispecific antibody, scFv-Fab; the entry already carries the mutation; also called 3086) light: DIQLTQSPSSLSASVGDRVSITCKASQDVSIAVAWYQQKPGKAPKLLIYSASYRYTGVPDRFSGSGSGTDFTLTISSLQPEDFAVYYCQQHYITPLTFGAGTKVEIKRTVAAPSVFIFPPSDEQLKSGTASVVCLLNNFYPREAKVQWKVDNALQSGNSQESVTEQDSKDSTYSLSSTLTLSKADYEKHKVYACEVTHQGLSSPVTKSFNRGEC heavy: not shown |  |
| 0.728 | 6.51 nM | 0.73 | 2.67 min | 6.51 nM | TCE-23 (anti-CD3 scFv R237A; anti-TROP2 HC wt) (bispecific antibody, scFv-Fab; the entry already carries the mutation) light: DIQLTQSPSSLSASVGDRVSITCKASQDVSIAVAWYQQKPGKAPKLLIYSASYRYTGVPDRFSGSGSGTDFTLTISSLQPEDFAVYYCQQHYITPLTFGAGTKVEIKRTVAAPSVFIFPPSDEQLKSGTASVVCLLNNFYPREAKVQWKVDNALQSGNSQESVTEQDSKDSTYSLSSTLTLSKADYEKHKVYACEVTHQGLSSPVTKSFNRGEC heavy: not shown |  |
| 0.414 | 12.3 nM |  | 6.45 min | 12.3 nM | TCE-19 (anti-CD3 scFv W233A; anti-TROP2 HC wt) (bispecific antibody, scFv-Fab; the entry already carries the mutation; also called 3091) light: DIQLTQSPSSLSASVGDRVSITCKASQDVSIAVAWYQQKPGKAPKLLIYSASYRYTGVPDRFSGSGSGTDFTLTISSLQPEDFAVYYCQQHYITPLTFGAGTKVEIKRTVAAPSVFIFPPSDEQLKSGTASVVCLLNNFYPREAKVQWKVDNALQSGNSQESVTEQDSKDSTYSLSSTLTLSKADYEKHKVYACEVTHQGLSSPVTKSFNRGEC heavy: not shown |  |
| 0.742 |  | 0.74 | 4.26 min |  | TCE-25 (anti-CD3 scFv V239A; anti-TROP2 HC wt) (bispecific antibody, scFv-Fab; the entry already carries the mutation) light: DIQLTQSPSSLSASVGDRVSITCKASQDVSIAVAWYQQKPGKAPKLLIYSASYRYTGVPDRFSGSGSGTDFTLTISSLQPEDFAVYYCQQHYITPLTFGAGTKVEIKRTVAAPSVFIFPPSDEQLKSGTASVVCLLNNFYPREAKVQWKVDNALQSGNSQESVTEQDSKDSTYSLSSTLTLSKADYEKHKVYACEVTHQGLSSPVTKSFNRGEC heavy: not shown |  |
| 0.931 | 9.11 nM |  |  |  | TCE-28 (anti-CD3 scFv N30Q, I109V, G172A, V231A; anti-TROP2 HC wt) (bispecific antibody, scFv-Fab; the entry already carries the mutations; also called 3100) light: DIQLTQSPSSLSASVGDRVSITCKASQDVSIAVAWYQQKPGKAPKLLIYSASYRYTGVPDRFSGSGSGTDFTLTISSLQPEDFAVYYCQQHYITPLTFGAGTKVEIKRTVAAPSVFIFPPSDEQLKSGTASVVCLLNNFYPREAKVQWKVDNALQSGNSQESVTEQDSKDSTYSLSSTLTLSKADYEKHKVYACEVTHQGLSSPVTKSFNRGEC heavy: not shown |  |
|  | 6.26 nM |  | 2.96 min | 6.26 nM | TCE-17 (anti-CD3 scFv V231A; anti-TROP2 HC wt) (bispecific antibody, scFv-Fab; the entry already carries the mutation) light: DIQLTQSPSSLSASVGDRVSITCKASQDVSIAVAWYQQKPGKAPKLLIYSASYRYTGVPDRFSGSGSGTDFTLTISSLQPEDFAVYYCQQHYITPLTFGAGTKVEIKRTVAAPSVFIFPPSDEQLKSGTASVVCLLNNFYPREAKVQWKVDNALQSGNSQESVTEQDSKDSTYSLSSTLTLSKADYEKHKVYACEVTHQGLSSPVTKSFNRGEC heavy: not shown |  |
| 0.674 | 11.1 nM | 0.67 | 1.66 min | 11.1 nM | TCE-20 (anti-CD3 scFv Y234A; anti-TROP2 HC wt) (bispecific antibody, scFv-Fab; the entry already carries the mutation) light: DIQLTQSPSSLSASVGDRVSITCKASQDVSIAVAWYQQKPGKAPKLLIYSASYRYTGVPDRFSGSGSGTDFTLTISSLQPEDFAVYYCQQHYITPLTFGAGTKVEIKRTVAAPSVFIFPPSDEQLKSGTASVVCLLNNFYPREAKVQWKVDNALQSGNSQESVTEQDSKDSTYSLSSTLTLSKADYEKHKVYACEVTHQGLSSPVTKSFNRGEC heavy: not shown |  |
